The text below walks through data of WO2019173771A1 (dated 2019).

Test [1] has as its target T1, recombinant human CD147-Fc chimeric protein (R&D Systems, cat. no. 927-EMN-050), glycosylated (human, UniProt P35613-2 25-205, glycosylated (as supplied; migrated at about 62 kDa)).
T1 construct: Bought protein; also called glycosylated CD147-Fc fusion protein; glycosylated CD147 antigen; not shown: Fc part of the bought chimeric protein
T1 sequence (looked up): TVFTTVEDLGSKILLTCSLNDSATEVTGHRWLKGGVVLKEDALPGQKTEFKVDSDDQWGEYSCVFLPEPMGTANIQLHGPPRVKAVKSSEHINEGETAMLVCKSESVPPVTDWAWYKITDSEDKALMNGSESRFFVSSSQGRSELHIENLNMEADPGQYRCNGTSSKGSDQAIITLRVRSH
Description: ELISA, CD147-Fc adsorbed at 1 ug/mL. (In general: An ELISA detects its analyte on a solid surface through an enzyme-linked reagent.)

For test [2], the target named is T2, cynomolgus CD147 on the cynomolgus primary kidney epithelial cell line (cynomolgus monkey).
T2 construct: whole, on cells; also called cynomolgus monkey CD147
Description: FACS on the cynomolgus primary kidney epithelial cell line, Alexa Fluor 647 anti-human IgG.

Test [3] addresses T3, recombinant human CD147-Fc chimeric protein (R&D Systems, cat. no. 927-EMN-050), deglycosylated (human, UniProt P35613-2 25-205, deglycosylated of N- and simple O-linked carbohydrates (Protein Deglycosylation Mix II or Enzymatic Protein Deglycosylation Kit; migrated at 52 and 48 kDa)).
T3 construct: Same bought protein as m6 after enzymatic deglycosylation; also called deglycosylated CD147-Fc fusion protein; deglycosylated CD147 antigen; not shown: Fc part of the bought chimeric protein
T3 sequence (looked up): T1 sequence (looked up)
The test is described as follows: ELISA, deglycosylated CD147-Fc adsorbed at 1 ug/mL.

B1: humanized anti-human CD147 hu3A11 antibody (3A11 Lc1 / Hc1) (antibody, V domains shown)
VH: EVQLVESGGGLVQPGGSLRLSCAASGFTFSNYWMDWVRQAPGKGLEWVGEIRLKSYNYATHYAASVKGRFTISRDDSKNSVYLQMNSLKTEDTAVYYCTAAGTDYWGQGTLVTVSS
VL: DIQMTQSPSSLSASVGDRVTITCRASQSVRTDVGWYQQKPGKAPKLLIYYSSNRYTGVPSRFSGSGSGTDFTLTISSLQPEDFATYYCQQDYSSPYTFGQGTKLEIK
notes: also called hu 3A11 Lc1 / Hc1; huHc1 / huLc1
Consider B1, for which the binding result in test [1] and in test [3] was “binds” throughout. Besides, the affinity in test [2], expressed as Kd, was 1.3 nM.

In general, Kd refers to the equilibrium constant for the complex coming apart. A higher Kd goes with weaker binding.
